In PMC2990918:

Target: normal undigested taxol microtubules (αβ-MTs) of porcine brain tubulin (porcine (brain)) (UniProt P02550)
Experiment: co-sedimentation

- Kd: 0.51 µM
- percent dissociated at 100 mM NaCl: 30%
Substance: CLIP-170 MT-binding domain fragment H1^1–350 (from UniProt P30622 1-350) (domain or fragment)
